Reference: the DeepSol protein solubility set

test: soluble on expression in E. coli; label from the status in PepcDB or PDB records

Question: For “MELVIISGRSGSGKSVALRALEDVGYYCVDNLPFPLIAELASFLLASDCSAVVSLDIRNFPENLTRIDELLHQLSQLTINTKMIFLDCESATLIRRYSDSRRLHPLSNQDLSLASAIELENTLLDPLRQQADYLIDTTHSSPHELAANLRHILRGSTEKELNIVFESFGFKYGLSADADYVFDVRFLPNPHWHAELRAMTGLEQPVIDFLERQTEVHNFIYQTRNYLETWLPMLEKNNRSYLTIAFGCTGGKHRSVFITEQLAKYFQSRGKNVKIRHRSLEKY”, which “soluble on expression in E. coli” value is on record?
Answer: Its value is “not soluble”.

Question: Which “soluble on expression in E. coli” value does the source give for “MEMTSAFTLNVRLDNIAVITIDVPGEKMNTLKAEFASQVRAIIKQLRENKELRGVVFVSAKPDNFIAGADINMIGNCKTAQEAEALARQGQQLMAEIHALPIQVIAAIHGACLGGGLELALACHGRVCTDDPKTVLGLPEVQLGLLPGSGGTQRLPRLIGVSTALEMILTGKQLRAKQALKLGLVDDVVPHSILLEAAVELAKKERPSSRPLPVRERILAGPLGRALLFKMVGKKTEHKTQGNYPATERILEVVETGLAQGTSSGYDAEARAFGELAMTPQSQALRSIFFASTDVKKDPGSDAPPAPLNSVGILGGGLMGGGIAYVTACKAGIPVRIKDINPQGINHALKYSWDQLEGKVRRRHLKASERDKQLALISGTTDYRGFAHRDLIIEAVFENLELKQQMVAEVEQNCAAHTIFASNTSSLPIGDIAAHATRPEQVIGLHFFSPVEKMPLVEIIPHAGTSAQTIATTVKLAKKQGKTPIVVRDKAGFYVNRILAPYINEAIRMLTQGERVEHIDAALVKFGFPVGPIQLLDEVGIDTGTKIIPVLEAAYGERFSAPANVVSSILNDDRKGRKNGRGFYLYGQKGRKSKKQVDPAIYPLIGTQGQGRISAPQVAERCVMLMLNEAVRCVDEQVIRSVRDGDIGAVFGIGFPPFLGGPFRYIDSLGAGEVVAIMQRLATQYGSRFTPCERLVEMGARGESFWKTTATDLQ” here?
Answer: Its value is “soluble”.

Question: For “MENGIGYIPLLNVSHKHGGTHFYRKNSGTCDLCEKNFKTSEELVEHKKNYPRADVEKALSVYKEKDTIYKCLQCSGEFRLKEDFDYHQELHKRLGELKSASSNKSEANKDDESDIDSSFEIIEN”, which “soluble on expression in E. coli” value is on record?
Answer: Its value is “not soluble”.

Question: With “MENLKNVAPIEDFNWDAYENGEAVTSASHEDLEKAYDGTLNKVNDREVVDGTVIAMNKREVVVNIGYKSDGIIPLNEFRYNPDLKVGDTVEVYIENQEDKKGQLVLSHRKARATRSWDRVNAALENEEIIKGFIKCRTKGGMIVDVFGIEAFLPGSQIDVKPIRDYDVFVGKTMEFKVVKINQEFKNVVVSHKALIEAELEQQKKEIIGKLEKGQVLEGTVKNITSYGVFIDLGGVDGLIHITDLSWGRVSDPKEVVELDQKLNVVILDFDDEKKRIALGLKQLTPHPWDALDTDLKVGDKVKGKVVVMADYGAFIEIATGVEGLIHVSEMSWSQHLRSAQDFMKVGDEVEAVVLTLDREERKMSLGIKQLKQDPWETIEEKYPVGSKHTAKVRNFTNFGVFVEIEEGVDGLIHISDLSWTKKVKHPSEFTQIGADIEVQVLEIDKENRRLSLGHKQLEENPWDVFETVFTVGSVHEGTIIEMLDKGAVVALPYGVEGFATPKHLVKEDGSQAQLDEKLEFKVIEFNKDAKRIILSHSRIFEDVAKAEERAEKKAASGAKKSSNNKREDAPMIQNQAASTTLGDIDALAALKEQLEGKKLEHHHHHH” as the sequence, how does the “soluble on expression in E. coli” value read?
Answer: Its value is “soluble”.

Question: Which “soluble on expression in E. coli” value does the source give for “MENPLQKARILVNQLEKYLDHYAKEYDVEHLAGPQGHLVMYLYKHPDKDMSIKAVEEILHISKSVASNLVKRMEKNGFIAIVPSKTDKRVKYLYLTHLGKKKATQFEIFLEKLHSTMLAGITKEEIRTTKKVIRTLAKNMAMENLD” here?
Answer: Its value is “soluble”.

Question: Which “soluble on expression in E. coli” value does the source give for “MENSIRYISEHPTDFNGLLSLYESLGWNSLKLTVNELERMCKQSWYAIYVFDDKRLVGMGRVISDGVITGIICGVGVLPKYQSSGIGKEIVKRLIQHCEQNKVIPQLMCVEKLQSYYESIGFEAFSIGMTKHIIR” here?
Answer: Its value is “not soluble”.

Question: Which “soluble on expression in E. coli” value does the source give for “MENTETLIVEQLKIGNENAYRYIYDHHYALLCYVANGYLKDQFLSETIVGDTIFHLWEIRETLDISVSIRSYLLRAVRNRCINYLNSEREKREIAFSALMPDEITDDKIILSDSHPLGILLERELENEIYKAIDKLPDECRRVFAKSRFEGKSYEEISGELGISINTVKYHIKNALASLHAHLSKYLISLLLFFFR” here?
Answer: The value was “not soluble”.

Question: With “MENVVIIDAVRTPMGRSKGGAFRHVRAEDLSAHLMRAVISRNPGLNAAEIDDIYWGCVQQTLEQGFNIARNASLLAEIPHSVPAVTVNRLCGSSMQALHDGARAIMVGDAKISLIGGVEHMGHVPMNHGVDFHPGMGRTVAKAAGMMGLTAEMLAKIHNISRQSQDEFAFRSHQRAYAATQAGHFAKEIVATNGHDAEGVLKRFDFDEVIRPETNLSGLAALRPAFDPVNGTVTAGTSSALSDGASAMLIMSESRAKSLGLTPRARIRSMAVVGCDPSIMGYGPVPASQLALKRAGLELADIGLFELNEAFAAQSLACLKGLGLLESMDDKVNLNGGAIALGHPLGCSGARISTTLLNLMERRDVQFGLATMCIGLGQGIATVFERL” as the sequence, how does the “soluble on expression in E. coli” value read?
Answer: Its value is “not soluble”.

Question: For “MEPADEPSELVSAEGRNRKAVLCQRCGSRVLQPGTALFSRRQLFLPSMRKKPALSDGSNPDGDLLQEHWLVEDMFIFENVGFTKDVGNIKFLVCADCEIGPIGWHCLDDKNSFYVALERVSHE”, which “soluble on expression in E. coli” value is on record?
Answer: Its value is “soluble”.

Question: Which “soluble on expression in E. coli” value does the source give for “MEPHSLRYNLTVLSWDGSVQSGFLTEVHLDGQPFLRCDRQKCRAKPQGQWAEDVLGNKTWDRETRDLTGNGKDLRMTLAHIKDQKEGLHSLQEIRVCEIHEDNSTRSSQHFYYDGELFLSQNLETKEWTMPQSSRAQTLAMNVRNFLKEDAMKTKTHYHAMHADCLQELRRYLKSGVVLRRTVPPMVNVTRSEASEGNITVTCRASGFYPWNITLSWRQDGVSLSHDTQQWGDVLPDGNGTYQTWVATRICQGEEQRFTCYMEHSGNHSTHPVPS” here?
Answer: The value was “soluble”.

Question: For “MEQDINNQTGKKIFLNEECFLELDKLPQHVSVLGVSGFGKSNILLHFLKYAIDNDHPLIFVNGKGDKELITQFEHYQTSAKQLSPEDGFDTVKLVALKNTSAKIWSLDDRIATIKYNPFK”, which “soluble on expression in E. coli” value is on record?
Answer: The value was “soluble”.

Question: For “MEQKHNGIIFTAIPNESNEYYQPFYEDLIYFNECLNEKKSIADQLISLSVEEQDFHTSCFEYDDIWLRDVAPVVTNHLVKFKYRPNYLPDDQGRYLDQQFNKWLKKNDFEYVKSPLILDGGNLIWNKKDTVILTERIFDDNDDWTEEEIIEQLEWDLDVSRVIIIPAEEGDVLAHADGMVKFIDEHTMFISDFLGDHEFRYSVEEIIQEQMPEAEFIVVPSSYTEKGQYDQEIASAKGLYINMLESCDALYVPKFGLAKDEEVLRYIQQYTEKQVIQIHVGEISTMGGAMNCLTWYCPSHLLPSKMRRLKNQNEDFSMKKIFDWFLEHHHHHH”, which “soluble on expression in E. coli” value is on record?
Answer: The value was “soluble”.

Question: For “MEQRLLAVFDFDGTITRHDSFVPFLKFAFGQRVFSVRMARLVLPSLGYLTKRLSRDELKGRLIKAFLSGVEVQWLQQKAEAFCHSHWKRLMRPAALESIAAEIEKGAIVTLCSASPAMVLQPFADRLKVELIGTNLEVIDGKLTGLIEGSNCRCDSKVARLESVYGPLTQFRVRAWGDTRGDHELLAAAQDAHWRLFHPTWRRGRYKGPVNAKLHNPDGKDGPTR”, which “soluble on expression in E. coli” value is on record?
Answer: The value was “not soluble”.

Question: For “MERCGWVSQDPLYIAYHDNEWGVPETDSKKLFEMICLEGQQAGLSWITVLKKRENYRACFHQFDPVKVAAMQEEDVERLVQDAGIIRHRGKIQAIIGNARAYLQMEQNGEPFVDFVWSFVNHQPQVTQATTLSEIPTSTSASDALSKALKKRGFKFVGTTICYSFMQACGLVNDHVVGCCCYPGNKPLEHHHHHH”, which “soluble on expression in E. coli” value is on record?
Answer: Its value is “soluble”.

Question: For “MERSLYSPDLRIPPANIHNNHLKIDTDRKIRFAITHPEIKKAKGTIVILESYANALEEYFLPMNEISNRGFYTAIFDWFGREESQPDKQKQSRYNYFNINNDINDLNEFLKNIVYCNCPPPYYMLTYGMGGLIALSGLDLINHKFNKMLCISPLFAPFGNKTNSFQHKLTQLLSDIGLGFLPAKGGEKLKQKSTQFMRINEAALSSDFLIKRPTSRWMASVLNAIDSVKKNILNGHLEIPTLFILANQNNIANNIEIRQLCQYTHLTDSITITGAELDTIMHEESYQKQFWIAFDAFIRG”, which “soluble on expression in E. coli” value is on record?
Answer: The value was “not soluble”.

Question: Which “soluble on expression in E. coli” value does the source give for “MERSWGMGHFPHMQKKTLDAFVRGLQIVMEAEGIKMKPLSVAAGMGESGVRDLIRNESSPKVANAYALARELGRTVDEIIQIGMTGDLNARPAHAPIAVAGCVGAGARVDLLDAYEKGDGMYHVARPPQLKPHGIVAVEVKGESMMPLYRPGSVLFYTRAAAEGVPVEALNTPCVCEDADGRAWLKVVKVGSQEGTFSLLSLNPDADNMHGVRLKWAAPVLLTLSPDYVERVYV” here?
Answer: Its value is “not soluble”.

Question: For “MERVASVLSALKPTLEKHQLGSWKPAEVDRLCAMLREYGKQERRDKCGTSCLDGAATALASLPSSSSVPPSLPSGGDDVEDENDADEEAFAGVVSEVDRCLSLVRDFLKRRMPFGAVVEPTLPAGTAERQAPQSSSADIISCKRARSLSGEPSSSAPTSNSVHSGAAVVEAPVYAVDAFLYAEGDIEKLVEAKKLAREYCCRCGSTDLGLVEFITHSFSQDQLVYLSCFLLPHLLDVVVASHEASRPLSIVDVGSRLGIVLWACAFALQRGLLAPAQAATTDAAADDAAPEVNLVGIELDATFVKISQDVARRFFAQRRRHAPKLVSVPQPAAANGVDAKLPDVSSSIQLLQSDCFEGAAASALSESSLVVMHNVFEYFCTTAVEHARCWLKLRRLVHRSGQFLVCSPALEVTLGTFTDEVWLQAWQLENGNDARGASTPLAWLASYVEPFDTADVASDFLTMRTLSCEGCDAGSDGDKHHEDHHGRSRDHHHHSSEDDEGDGEEASEMAEQIQRIYVYCVK”, which “soluble on expression in E. coli” value is on record?
Answer: The value was “not soluble”.

Question: Which “soluble on expression in E. coli” value does the source give for “MERVNERREQNNPNGCCLRDEDFSQFNSEAFLRELAADLNEDDTNDLSSSLFATSRIPEEHIRSTGLVERAEHYNKSVDQRTMTDARIAFEEEQLKNGKSPNAGTSGMENLADSGTHVPRRGRGDYFGKLRSFENGVSFPSRPPLTSEHSSSGDSYFNNSHKTTPNYRRFANSNDSSRDNSQMEYKAENDASHTSQSSNRFGFNSQINRTDIHPPAARHTFNPAAAYNGKITPDFRFNYIPNAAVPAPSVVPVIATHPGVAPPSIVPSPIRIGQRYPKRPDNMPKPSSEPKHLNHNYYQIELYGATQEDRIAQRIEKTVRQTEAPVRRF” here?
Answer: Its value is “not soluble”.

Question: Which “soluble on expression in E. coli” value does the source give for “MESKRLDNAALAAGISPNYINAHGKPQSISAETKRRLLDAMHQRTATKVAVTPVPNVMVYTSGKKMPMVVEGSGEYSWQLTTEEGTQYKGHVTGGKAFNLPTKLPEGYHTLTLTQDDQRAHCRVIVAPKRCYEPQALLNKQKLWGACVQLYTLRSEKNWGIGDFGDLKAMLVDVAKRGGSFIGLNPIHALYPANPESASPYSPSSRRWLNVIYIDVNAVEDFHLSEEAQAWWQLPTTQQTLQQARDADWVDYSTVTALKMTALRMAWKGFAQRDDEQMAAFRQFVAEQGDSLFWQAAFDALHAQQVKEDEMRWGWPAWPEMYKNVDSPEVRQFCEEHRDDVDFYLWLQWLAYSQFAACWEISQGYEMPIGLYRDLAVGVAEGGAETWCDRELYCLKASVGAPPDILGPLGQNWGLPPMDPHIITARAYEPFIELLRANMQNCGALRIDHVMSMLRLWWIPYGETADQGAYVHYPVDDLLSILALESKRHRCMVIGEDLGTVPVEIVGKLRSSGVYSYKVLYFENDHEKTFRAPKAYPEQSMAVAATHDLPTLRGYWESGDLTLGKTLGLYPDEVVLRGLYQDRELAKQGLLDALHKYGCLPKRAGHKASLMSMTPTLNRGLQRYIADSNSALLGLQPEDWLDMAEPVNIPGTSYQYKNWRRKLSATLESMFADDGVNKLLKDLDRRRRAAAKKK” here?
Answer: The value was “not soluble”.

Question: With “MESNNGIILRVAEANSTDPGMSRVRLDESSRRLLDAEIGDVVEIEKVRKTVGRVYRARPEDENKGIVRIDSVMRNNCGASIGDKVKVRKVRTEIAKKVTLAPIIRKDQRLKFGEGIEEYVQRALIRRPMLEQDNISVPGLTLAGQTGLLFKVVKTLPSKVPVEIGEETKIEIREEPASEVLEEGG” as the sequence, how does the “soluble on expression in E. coli” value read?
Answer: The value was “soluble”.
